Assay: yeast display, Sf9 membrane polyspecificity reagent, FACS + sequencing; frameworks hold sequencing errors
Outline: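 A nanobody's polyreactivity label depends on the gate it was sorted from. Yeast display cells were stained with 10% biotinylated, detergent-solubilized Sf9 membrane reagent for 1 hour at 4 °C, enriched on streptavidin microbeads and sorted by FACS. The low and high (top ~1%) gates were set on anti-HA fluorescence for expression and streptavidin fluorescence for reagent binding.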

Sequence | polyreactivity (PSR sort gate)
QVQLVESGGGLVQAGGSLRLSCAASGRIFGWYAMGWYRQAPGKERELVAAISYSGGSTYADSVKGRFTISRDNAKYTVYLQMNSLKPEDTAVYYCAAYSSYYVHRFQHYDYWGQGTQVTVSS | high polyreactivity
QVQLVESGGGLVQAGGSLRLSCAASGRIFGWYAMGWYRQAPGKERELVAAITSSVGRTYYADSVKGRFTISRDNAKNTVYLQMNSLKPEDTAVYYCAKDLYTYYYFEYDYWGQGTQVTVSS | low polyreactivity
QVQLVESGGGLVQAGGSLRLSCAASGRIFGWYAMGWYRQAPGKERELVAGISSSSGSTNYADSVKGRFSISRDNAKNTVYLQMNSLKPEDTAVYYCAADGGGTYYSFYYWGQGTQVTVSS | low polyreactivity
QVQLVESGGGLVQAGGSLRLSCAASGRIFGWYDMGWYRQAPGKERELVAAISYNGARTYYADSVKGRFTISRDNAKNTVYLQMNSLKPEDTAVYYCARRYYSQYDYWGQGTQVTVSS | high polyreactivity
QVQLVESGGGLVQAGGSLRLSCAASGRIFGYAMGWYRQAPGKERELVAAITSSGGRTYYADSVKGRFTISRDNAKNTVYLQMNSLKPEDTAVYYCAAEYLAVSGYWYDYWGQGTQVTVSS | high polyreactivity
QVQLVESGGGLVQAGGSLRLSCAASGRIFGYNAMGRYRQAPGKERELVAAISSGASTIYADSVKGRFTISRDNAKNTVYLQMNSLKPEDTAVYYCAKEKVISPYPYSYYKSDYWGQGTQVTVSS | high polyreactivity
QVQLVESGGGLVQAGGSLRLSCAASGRIFGYNAMGWSRQAPGKERELVAAISYSGGSTYYADSVKGRFTISRDNAKNTVYLQMNSLKPEDTAVYYCAARHPYYYHYDYWGQGTQVTVSS | high polyreactivity
QVQLVESGGGLVQAGGSLRLSCAASGRIFGYYAMGSYRQAPGKERELVAAITRGGSTNYADSVKGRFTISRDNAKNTVYLQMNSLKPEDTAVYYCNARRYRPRSASYDYWGQGTQVTVSS | high polyreactivity
QVQLVESGGGLVQAGGSLRLSCAASGRIFGYYAMGWSRQAPGKEWELVAAISSGGRTYYADSVKGRFTISRDNAKNTVYLQMNSLKPEDTAVYYCAARSRVPPAGPRYDYWGLGTQVTVSS | high polyreactivity
QVQLVESGGGLVQAGGSLRLSCAASGRIFGYYAMGWYRQAPGKERELVAAISDGGSTDYADSVKGRFTISRDNAKNTVYLQMNSLKPEDTAVYYCNADRLYLYNVEYDYWGQGTQVTVSS | low polyreactivity
QVQLVESGGGLVQAGGSLRLSCAASGRIFGYYAMGWYRQAPGKERELVAAISSNGGSTYYADSVKGRFTISRDNAKNTVYLQMNSLKPEDTAVYYCKVYFYSRHYFYRGDYWGQGTQVTVSS | high polyreactivity
QVQLVESGGGLVQAGGSLRLSCAASGRIFGYYAMGWYRQAPGKERELVAAISYTGGSTYYADSVKGRFTISRDNAKNTVYLQMNSLKPEDTAVYYCAAKHYKRLDYWGQGTQVTVSS | high polyreactivity
QVQLVESGGGLVQAGGSLRLSCAASGRIFGYYAMGWYRQAPGKERELVAAITGSGGRTYYADSVKGRFTISRDNAKNTVYLQMNSLKPEDTAVYYCARQQYRWERVYGYGYCGQGTQVTVSS | high polyreactivity
QVQLVESGGGLVQAGGSLRLSCAASGRIFGYYAMGWYRQAPGKERELVAAITRNGGSTYYADSVKGRFTISRDNAKNTVYLQMNSLKPEDTAVYYCAATKGGGRGYWGQGTQLTVSS | high polyreactivity
QVQLVESGGGLVQAGGSLRLSCAASGRIFGYYAMGWYRQAPGKERELVAAITWSGGTYYADSVKGRFTISRDNAKNTVYLQMNSLKPEDTAVYYCAKSVRNGWQSRFGYWGQGTQVTVSS | high polyreactivity
QVQLVESGGGLVQAGGSLRLSCAASGRIFGYYAMGWYRQAPGKERELVADITESGTSTYYADSVKGRFTISRDNAKNTVYLHMNILKPEDTAVYYCAAGYWWRYALYGYWGQGTQVTVSS | low polyreactivity
QVQLVESGGGLVQAGGSLRLSCAASGRIFGYYAMGWYRQAPGKERELVAGINSAGSTNYADSVKGRFTISRDNAKNTVYLQMNSLKPEDTAVYYCAARIRLSLRTGYDYWGQGTQVTVSS | high polyreactivity
QVQLVESGGGLVQAGGSLRLSCAASGRIFGYYAMGWYRQAPGKERELVARISSSGGSTYYADSVKGRFTISRDNAKNTVYLQMNSLKPEDTAVYYCNTASNRYPGWRAEFDYWGQGTQVTVSS | low polyreactivity
QVQLVESGGGLVQAGGSLRLSCAASGRIFGYYAMGWYRQAPGKERELVATITFGGGSTYYADSVKGRFTISRDNAKNTVYLQMNSLKPEDTAVYFCAADSGYLGIYGDEYSWGQGTQVTVSS | low polyreactivity
QVQLVESGGGLVQAGGSLRLSCAASGRIFGYYGMGWYRQAPGKERELVAAITDDGDSTYYADSVKGRFTISRDNAKNTVYLQMNSLKPEDTAVYYCNALGYYVNKMDYWGQGTQVTVSS | low polyreactivity
QVQLVESGGGLVQAGGSLRLSCAASGRIFGYYTMGWYRQAPGKERELVAGITRRGGRTYYADSVKGRFTISRDNAKNTVYLQMNSLKPEDTAVYYCDVRSGVNFYYWGQGTQVTVSS | high polyreactivity
QVQLVESGGGLVQAGGSLRLSCAASGRIFGYYVMGWYRPAPGKERELVAAIRSSADSTYYADSVKGRFTISRDNAKNTVYLQMNSLKPEDTAVYDCAAQSPAYYTKSYWGQGTQVTVSS | low polyreactivity

Sequence | polyreactivity (PSR sort gate)
QVQLVESGGGLVQAGGSLRLSCAASGRIFGYYVMGWYRPAPGKERELVAAISRSGGSTYYADSVKGRFTISRDNAKNTVYLQMNSLKPEDTAVYYCAKRVSTYGFSGYDYWGQGTQVTVSS | high polyreactivity
QVQLVESGGGLVQAGGSLRLSCAASGRIFHANAMGWYRQAPGKERELVAGISRNGGRTYYADSVKGRFTISRDNAKNTVYLQMNSLKPEDTAVYYCAKGHKFRFDYWGQGTQVTVSS | high polyreactivity
QVQLVESGGGLVQAGGSLRLSCAASGRIFHFYAMGWYRQAPGKERELVAAISWSGGSTYYADSVKGRFTISRDNAKNTVYLQMNSLKPEDTAVYYCSKVRGEVAHRKVQYDYWGQGTQVTVSS | low polyreactivity
QVQLVESGGGLVQAGGSLRLSCAASGRIFHFYVMGWYRQAPGKERELVASITRGGNTNYADSVKGRFTISRDNAKNTVYLQMNSLKPEDTAVYYCNGEGYYTRDDSWGQGTQVTVSS | low polyreactivity
QVQLVESGGGLVQAGGSLRLSCAASGRIFHGNAMGWYRQAPGKERELVAAITSGGRTFYADSVKGRFTISRDNAKNTVYLQMNSLKPEDTAVYYCNAPSIAGYAEYNSHDYWGQGTQVTVSS | high polyreactivity
QVQLVESGGGLVQAGGSLRLSCAASGRIFHPNAMGWYRRATGKERELVAAISRSGSTYYADSVKGRFTISRDNAKNTVYLQMNSLKPEDTAVYYCATQTWSGYSGTPRIYDYWGQGTQVTVSS | high polyreactivity
QVQLVESGGGLVQAGGSLRLSCAASGRIFHQYGMGGYSQAPGKERELVAAIRSGDSTNYADSVKGRFTISRDNAKNTVYVQMNSLKPEDTAVYYCARDRPGDYAGYDYWGQGTQVTVSS | low polyreactivity
QVQLVESGGGLVQAGGSLRLSCAASGRIFHSKAMGWYRQAPGKERELVAAITWSTGRTYYADSVKGRFTISRDNAKNTVYLQMNSLKPEDTAVYYCFRFSYYTGDYWGQGTQVTVSS | high polyreactivity
QVQLVESGGGLVQAGGSLRLSCAASGRIFHYNDMVWYRQAPGKEREFVATIRYSGGSTYYADSVKGRFTISRDNAKNTVYLQLNSLKPEDTAVYYCATSRRYLRFRNYYGYDYWGQGTQVTVSS | high polyreactivity
QVQLVESGGGLVQAGGSLRLSCAASGRIFHYYAMGWYRQAPGKERELVAAITSSGGSTYYADSVKGRFTISRDNAKNTVYLQMNSLKPEDTAVYYCAAGLIVGRFLRYDYWGQGTQVTVSS | high polyreactivity
QVQLVESGGGLVQAGGSLRLSCAASGRIFIGNAMGWYRQAPGKERELVAAITWSGDDSTYYADSVKGRFTISRDNAKITVYLQMNSLKTEDTAVYYCAAYSYYYEYNYWGQGTQVTVSS | low polyreactivity
QVQLVESGGGLVQAGGSLRLSCAASGRIFINVLGWSRQAPGKETELVATITNSGGSTYYADSVKGRFTISRDNAKNTVYLQMNSLKPEDTAVYYCAKRSYHRYGVYRYDYWGQGTQLTVSS | high polyreactivity
QVQLVESGGGLVQAGGSLRLSCAASGRIFIRNAMGWYRQAPGKERELVAAITWSGGGTYYADSVKGRFTISRDNAKNTVYLQMNSLKPEDTAVYYCNVDITGYEDDYWGQGTQVTVSS | low polyreactivity
QVQLVESGGGLVQAGGSLRLSCAASGRIFISNAKGWYIQAPGKERELVAAITWIGDRTYYADSVKGRFTISRDNAKITVYLEMNSLKPEDTAVYYCNRVTSRVSGRYSYEYWGQVTQVTVSS | high polyreactivity
QVQLVESGGGLVQAGGSLRLSCAASGRIFIYYAMGWDRQAPGKERELVAAISWGGGRTYYADSVKGRFTISRDNAKNTVYLQMNSLKPEDTAVYYCAAGVYTGQHEYDYWGQGTQVTVSS | low polyreactivity
QVQLVESGGGLVQAGGSLRLSCAASGRIFIYYAMGWYRQAPGKERELVAAISWGGGRTYYADSVKGRFTITRDNAKNTVYLQINSLKPEDTAVYYCAAGVYTGQHEYDYWGQGTQVTVSS | low polyreactivity
QVQLVESGGGLVQAGGSLRLSCAASGRIFIYYAMGWYRQAPGKERELVAAITRGGNTNYADSVKGRFTISRDNAKNTVYLQMNSLKPEDTAVYYCAAAIRYGSRHRGYWGQGTQVTVSS | low polyreactivity
QVQLVESGGGLVQAGGSLRLSCAASGRIFKDNAMGWYRQAPGKERELLATIDSGGDTNYADSVKGRFTISRDNAKNTVYLQMNSLKPEDTAVYYCNTEGFLSAVFAFGYWGQGTQVTVSS | low polyreactivity
QVQLVESGGGLVQAGGSLRLSCAASGRIFKDYAMGLYRQAPGKERELVAGIDYRGGSTYYADSVKGRFTISRDNAKNTVYLQMNSLKPEDNAVYYCAADSLISIYDYWGQGTQVTVSS | low polyreactivity
QVQLVESGGGLVQAGGSLRLSCAASGRIFKFNAMGWYREAPGKERELVAAITTGGGSTYYADSVKGRFTISRDNAKNTVYLQMNSLKPEDTAVYYCATDRRHEYSSRRYYYWGQGTQVTVSS | high polyreactivity
QVQLVESGGGLVQAGGSLRLSCAASGRIFKFYTMGWDRQAPGKERELVASIDSTGGSTYYADSVKGRFTISRDNAKNTVYLQMNSLKPEDTAVYYCAAEWIWSSNWYKKYDYWGQGSQVTVSS | high polyreactivity
